Assay results from article PMC6983407.

Tests used:
[1] = target: recombinant FIPV-UU4 S protein (ectodomain of the spike protein of serotype I feline infectious peritonitis virus strain UU4, fused with the trimerization domain of T4 fibritin) (feline infectious peritonitis virus, serotype I, strain UU4 | bacteriophage T4); test: cryo-EM structure
[2] = target: recombinant FIPV-UU4 S protein (ectodomain of the spike protein of serotype I feline infectious peritonitis virus strain UU4, fused with the trimerization domain of T4 fibritin) (feline infectious peritonitis virus, serotype I, strain UU4 | bacteriophage T4); test: native gel or EMSA

“recombinant FIPV-UU4 S protein (ectodomain of the spike protein of serotype I feline infectious peritonitis virus strain UU4, fused with the trimerization domain of T4 fibritin) (natural protein)” was tested. Which stoichiometry N [1] did it give?
The stoichiometry N was 3.

And the stoichiometry N [2]?
The stoichiometry N was 3.
